# B1: p85 SH3 domain (amino acids 1-81) (other, UniProt P26450 1-81, looked up)
# chain: MSAEGYQYRALYDYKKEREEDIDLHLGDILTVNKGSLVALGFSDGQEARPEDIGWLNGYNETTGERGDFPGTYVEYIGRKR
# modifications: radioactively labeled
# notes: range 1-81
# Target: T1, GST (UniProt P08515 1-218 = GST)
# T1 construct: Control protein; also called GST itself
# Assay: Far-Western blot with radioactively labeled probe
# From the text: A bacterially expressed GST-GRB2 fusion protein containing a 5 amino acid RRASV heart muscle kinase site was purified and radioactively labeled with [³²P]ATP.
# T1 sequence (P08515 whole entry): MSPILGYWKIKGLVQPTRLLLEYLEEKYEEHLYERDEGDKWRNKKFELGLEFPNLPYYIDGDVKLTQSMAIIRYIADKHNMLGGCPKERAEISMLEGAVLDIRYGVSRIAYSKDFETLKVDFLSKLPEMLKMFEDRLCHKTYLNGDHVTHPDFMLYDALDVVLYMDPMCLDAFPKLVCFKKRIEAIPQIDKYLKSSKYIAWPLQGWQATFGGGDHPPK
binder,measurement,value
B1,binding result,no binding

# Source: patent US20020150567A1 (University of California, published 2002)
